Results published in publication PMC3797442, “Analysis of the role of Arabidopsis class I TCP genes AtTCP7, AtTCP8, AtTCP22, and AtTCP23 in leaf development”.

How the values were obtained:
AtTCP22;AtTCP23 = AtTCP22;AtTCP23 (Arabidopsis thaliana;Arabidopsis …, UniProt Q9C7G4;Q9LQF0 1-375;1-341, |); experiment: EMSA; heterodimer; LightShift Chemiluminescent EMSA Kit (Pierce), manufacturer's instructions; buffer, salt, pH and temperature not stated; conditions: protein: recombinant;recombinant; tags: N-terminal GST (pDEST15);N-terminal GST (pDEST15); copies: 1;1; label: biotin (both strands); blunt
Sequence of AtTCP22;AtTCP23 (Q9C7G4 whole entry, chain 1 of 2): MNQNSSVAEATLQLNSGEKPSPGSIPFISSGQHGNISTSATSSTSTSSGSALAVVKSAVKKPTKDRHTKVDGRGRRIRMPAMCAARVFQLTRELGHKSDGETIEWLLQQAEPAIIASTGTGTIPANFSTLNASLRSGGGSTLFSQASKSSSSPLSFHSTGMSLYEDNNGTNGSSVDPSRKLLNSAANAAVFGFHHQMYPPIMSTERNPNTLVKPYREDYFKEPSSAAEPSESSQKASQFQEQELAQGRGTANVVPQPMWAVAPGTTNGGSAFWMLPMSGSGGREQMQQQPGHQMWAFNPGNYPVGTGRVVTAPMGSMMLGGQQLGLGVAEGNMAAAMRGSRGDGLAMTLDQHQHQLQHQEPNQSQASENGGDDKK
Sequence of AtTCP22;AtTCP23 (Q9LQF0 whole entry, chain 2 of 2): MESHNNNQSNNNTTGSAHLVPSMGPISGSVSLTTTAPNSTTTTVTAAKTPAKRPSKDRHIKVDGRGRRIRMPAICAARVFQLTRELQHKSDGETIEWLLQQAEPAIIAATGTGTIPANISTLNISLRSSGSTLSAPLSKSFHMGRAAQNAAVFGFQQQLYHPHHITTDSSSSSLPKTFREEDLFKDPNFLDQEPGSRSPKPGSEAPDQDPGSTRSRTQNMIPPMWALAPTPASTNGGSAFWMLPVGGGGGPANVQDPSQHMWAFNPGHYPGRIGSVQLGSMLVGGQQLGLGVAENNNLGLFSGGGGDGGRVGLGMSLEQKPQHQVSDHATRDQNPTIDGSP

AtTCP7;AtTCP23 = AtTCP7;AtTCP23 (Arabidopsis thaliana;Arabidopsis …, UniProt Q9FMX2;Q9LQF0 1-250;1-341, |); experiment: as above; conditions: protein: recombinant;recombinant; tags: N-terminal GST (pDEST15);N-terminal GST (pDEST15); copies: 1;1; label: biotin (both strands); blunt
Sequence of AtTCP7;AtTCP23 (Q9FMX2 whole entry, chain 1 of 2): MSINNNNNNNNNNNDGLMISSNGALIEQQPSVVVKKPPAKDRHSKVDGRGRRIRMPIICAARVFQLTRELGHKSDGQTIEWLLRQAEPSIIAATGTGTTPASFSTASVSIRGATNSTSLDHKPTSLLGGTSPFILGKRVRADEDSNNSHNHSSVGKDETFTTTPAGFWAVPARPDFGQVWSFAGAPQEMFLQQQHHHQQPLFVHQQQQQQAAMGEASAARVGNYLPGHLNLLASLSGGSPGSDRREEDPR
Sequence of AtTCP7;AtTCP23 (Q9LQF0 whole entry, chain 2 of 2): as the sequence (Q9LQF0 whole entry, chain 2 of 2) above

AtTCP7;AtTCP22 = AtTCP7;AtTCP22 (Arabidopsis thaliana;Arabidopsis …, UniProt Q9FMX2;Q9C7G4 1-250;1-375, |); experiment: as above; conditions: protein: recombinant;recombinant; tags: N-terminal GST (pDEST15);N-terminal GST (pDEST15); copies: 1;1; label: biotin (both strands); blunt
Sequence of AtTCP7;AtTCP22 (Q9FMX2 whole entry, chain 1 of 2): as the sequence (Q9FMX2 whole entry, chain 1 of 2) above
Sequence of AtTCP7;AtTCP22 (Q9C7G4 whole entry, chain 2 of 2): as the sequence (Q9C7G4 whole entry, chain 1 of 2) above

AtTCP7 = AtTCP7 (Arabidopsis thaliana, UniProt Q9FMX2 1-250); experiment: EMSA; LightShift Chemiluminescent EMSA Kit (Pierce), manufacturer's instructions; buffer, salt, pH and temperature not stated; conditions: protein: recombinant; tags: N-terminal GST (pDEST15); chain copies: 2; label: biotin (both strands); blunt
Sequence of AtTCP7 (Q9FMX2 whole entry): as the sequence (Q9FMX2 whole entry, chain 1 of 2) above

Measured: binding result

B1: STM promoter K-box probe, 76 bp (dsDNA)
DNA 1: AACTATCACTATTTAGAATTTTCAATGTGGAAAAGGAAGCTGATTGTTGAAGCATAAATCCCGGGAGACCACTTTT
DNA 2: AAAAGTGGTCTCCCGGGATTTATGCTTCAACAATCAGCTTCCTTTTCCACATTGAAAATTCTAAATAGTGATAGTT
binds: all assays above
